Assay results published in PMC5492865.

Biological target: papain (UniProt P00784)
Chain of UniProt P00784 (P00784 134-345): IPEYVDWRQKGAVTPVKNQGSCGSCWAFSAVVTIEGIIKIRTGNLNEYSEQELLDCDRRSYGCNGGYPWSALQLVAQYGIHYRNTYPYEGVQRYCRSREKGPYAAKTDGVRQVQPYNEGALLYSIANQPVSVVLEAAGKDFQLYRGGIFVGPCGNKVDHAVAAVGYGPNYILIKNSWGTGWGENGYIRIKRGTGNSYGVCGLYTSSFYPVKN

salivary tick cystatin OmC2, recombinant, from insect Sf9 cells, with C-terminal oligo His-tag (non-labeled) (natural protein)
active site titration of 10 nM papain with cystatin OmC2 (substrate 10 μM Z-Phe-Arg-AMC, 0.1 M phosphate buffer pH 6.0): molar ratio at which dF/dt = 0 (text: the inhibitor was 88% active): 1.16 molar ratio
